Test results as given in US20230203156A1 (WILLIAM ROBERT ARATHOON LIVING TRUST DATED AUGUST 29 2016, published 2023).
Residue numbers refer to the chain shown, from its start.

Key:
[1] = target: human MDR1 (multidrug resistance protein 1) (human, UniProt P08183 1-1280); assay: cell-based or functional assay
human CD47 = target: T1, human CD47 (human, UniProt Q08722 19-323); assay: binding to C6 cells expressing human CD47, figure legend
T1 construct: whole, on cells; Overexpressed on rat C6 cells, or endogenous on human tumour cell lines; also called KT14; hKT14

B1: B1.278 (antibody, human IgG1, V domains shown)
VH: QVQLQQSGPELVKPGASVKISCKASGYSFTGYFMNWVMQSHGKSLEWIGRINPYNGDTFYNQKFKGKATLTVDKSSGTAHMELRSLASEDSAVYYCARCYYYGSSSYGMDYWGQGTSVTVSS
VL: QIVLTQSPASLAVSLGQRATISCRASESVHNYGVSFMNWFQQRPGQPPKLLIHAASHQGSGVPARFTGSGSGTDFSLNIHPMEEDDIAMYFCQQSKEVPLTFGAGTKLKLK
With B1 the “IC50 of vincristine on N6/ADR cells with antibody” value (shortened to “IC50 of vincristine”) [1] was 29 pM.

B2: B1.178 (antibody, human IgG1, V domains shown)
VH: EAQLVESGGALVKPGGSLKLSCSASGFTFSNYAMSWVRQTPEKRLEWVATISSGGTNTYYPGSVKGRFTIARDNAKNTLYLLMSSLRSEDTALYFCARYSNLAWFASWGQGTLVTVSA
VL: DVVMTQTPLSLPVSLGDQASISCRSSQSIVHSNGNTYLEWYLQKPGQSPKFLISKVSNRFSGVPDRFSGSGSGTDFTLKISRVEAEDLGIYYCFQGSHVPYTFGGGTKLEIK
B2 was tested, and the “IC50 of vincristine” value [1] was 52.8 pM.

B3: B1.226 (antibody, human IgG1, V domains shown)
VH: B2 VH with A2V, S23A, K43T, T56S, N57Y, G62D, A71S, L82Q, F95Y, S107Y
VL: B2 VL with E39D, L52M, S54Y, I90V
With B3 the “IC50 of vincristine” value [1] was 13.8 pM.

B4: B1.201 (antibody, human IgG1, V domains shown)
VH: EVQLVESGGALMKPGGSLKFSCAASGFTFTNYAMSWVRQTPEKRLEWVATISSGGSNTYYSDSVKGRFTISRDNAKTTLYLQMSGLRSEDTALYYCAKFSNFGRFASWGQGTLVTVSA
VL: B2 VL with V3L, S25F, N33S, K50R, F51L, S54Y, S61F, F67I, K79R, I90V
With B4 the “IC50 of vincristine” value [1] was 21.6 pM.

B5: B1.275 (antibody, human IgG1, V domains shown)
VH: EVMLVESGGALVKPGGSLKVSCAASGFTFSNYAMSWVRQSPEMRLEWVATISSGGTNTYYPDSVKGRFTISRDNARNTLYLQMSSLRSKDTAMYYCARYSNYGWFPYWGQGTTLTVSS
VL: B2 VL with S28T, N33D, N35Y, F51L, S54Y, K79R, I90V
B5 was tested, and the “IC50 of vincristine” value [1] was 78.1 pM.

B6: B1.99 (antibody, human IgG1, V domains shown)
VH: EVQLVESGGALVKPGGSLKLSCAASGFTFSNYAMSWVRQTPERRLEWVATISSGGSYTYYPDSVKGRFTISRDNAKNTLYLQMSSLISEDTALYYCTRGYGNFAWFAYWGHGTLVTVSA
VL: B2 VL with A19V, N33Y, N35S, F51L, S54Y, I90V, Y92F, V99I, I111L
B6 was tested, and the “IC50 of vincristine” value [1] was 61.9 pM.

B7: B1.207 (antibody, human IgG1, V domains shown)
VH: B4 VH with E1G, M12V, F20L, T30S, N57Y, S61P, F99Y, F102Y, A118T
VL: B2 VL with V3L, N33S, K50R, F51L, S54Y, S61F, F67I, K79R, I90V
B7 was tested, and the “IC50 of vincristine” value [1] was 9.5 pM.

B8: B1.219 (antibody, human IgG1, V domains shown)
VH: B4 VH with M12V, F20L, T30S, G54V, N57Y, S61P, F99Y, F102Y, A118T
VL: DVLMTQTPLSLPASLGDQASISCRSSQSIVHSSGNTYLEWYLQKPGQSPRLLIYKVSNRFFGVPDRISGSGSGTDFTLRISRVEAEDLGVYYCFQGSHVPYTFGGGTKLEIE
With B8 the “IC50 of vincristine” value [1] was 10.3 pM.

B9: B1.223 (antibody, human IgG1, V domains shown)
VH: B4 VH with Q3K, M12V, F20L, T30S, N57Y, S61P, F102Y, A118S
VL: B8 VL with V2I, L3Q, T5I, T7S, A13V, I111L, E112K
For B9, the “IC50 of vincristine” value [1] was 6.8 pM.

B10: KB1.273A (antibody, human IgG1, V domains shown)
VH: QVQLQQSGPELVKTGASVKISCKASGYSFSNYYIHWVKQSHGKSLEWIGFISCYNGATFYNQKFKGKATFTVDTSSSTAYMKFNSLTFEDSAVYYCARLPIQFGNFYPMDYWGQGTSVTVSS
VL: QIVLTQSPAIMSASLGERVTMTCTASSSVSSSYLHWYQQKPGSSPKLWIYSTSNLASGVPARFSGSGSGTSYSLTISSMEAEDAATYYCHQYHRSPPTFGAGTKLELK
For B10, the “IC50 of vincristine” value [1] was 29.9 pM.

B11: KT14.5F9hu scFv-B1.28.hu13 (bispecific antibody, human IgG1, kappa)
scFv: not shown
heavy: EVQLVESGGGLVKPGGSLRLSCAASGFTFGLYTMSWVRQAPGKGLEWVATISSGGSNTYYPDSVKGRFTISRDNAKNSLYLQMNSLRAEDTAVYYCARYYRYDAWFAYWGQGTLVTVSSASTKGPSVFPLAPSSKSTSGGTAALGCLVKDYFPEPVTVSWNSGALTSGVHTFPAVLQSSGLYSLSSVVTVPSSSLGTQTYICNVNHKPSNTKVDKRVEPKSCDKTHTCPPCPAPELLGGPSVFLFPPKPKDTLMISRTPEVTCVVVDVSHEDPEVKFNWYVDGVEVHNAKTKPREEQYNSTYRVVSVLTVLHQDWLNGKEYKCKVSNKALPAPIEKTISKAKGQPREPQVCTLPPSREEMTKNQVSLSCAVKGFYPSDIAVEWESNGQPENNYKTTPPVLDSDGSFFLVSKLTVDKSRWQQGNVFSCSVMHEALHNHYTQKSLSLSPGK
light: EVVLTQSPATLSLSPGERATLSCRSSQNIVHSTGNTYLDWYQQKPGQSPRLLIYKVSNRFSGVPARFSGSGSGTDFTLTISSLEPEDFAVYYCFQGSHIPRTFGGGTKLEIKRTVAAPSVFIFPPSDEQLKSGTASVVCLLNNFYPREAKVQWKVDNALQSGNSQESVTEQDSKDSTYSLSSTLTLSKADYEKHKVYACEVTHQGLSSPVTKSFNRGEC
B11: binds (human CD47).

B12: KT14.B6H12hu scFv-B1.28.hu13 (bispecific antibody, human IgG1, kappa)
scFv: not shown
heavy: B11 heavy
light: B11 light
B12: binds (human CD47).

B13: KPA08 (antibody, V domains shown)
VH: EVKVVESGGVLVRPGGSLKLSCAASGFTFSRYTMSWVRQTPEKRLEWVATISSGGGNTYYPDSVKGRFTVSRDNAMSSLYLQMSSLRSEDTALYYCARYGAGDAWFAYWGQGTLVTVSS
VL: DVLMTQTPVSLSVSLGDQASISCRSSQSIVHSTGNTYLEWYLQKPGQSPKLLIYKISNRFSGVPDRFSGSGSGTDFTLKISRVEAEDLGVYYCFQASHFPRTFGGGTKLEIK
With B13 the “IC50 of vincristine” value [1] was 2930 pM.

B14: B1.30 (antibody, human IgG1, V domains shown)
VH: EVMLVESGGGLVKPGGSLKLSCAASGFTFSSYTMSWVRQTPEKRLEWVATISSGGGNTYYPDSVKGRFTISRDNAKNNLYLQMSSLRSEDTALYYCARYYRYDAWFAYWGQGTLVTVSA
VL: B13 VL with V9L, S12P, I56V, A85T, A96G, F99V
With B14 the “IC50 of vincristine” value [1] was 52.2 pM.

B15: B1.198 (antibody, human IgG1, V domains shown)
VH: B4 VH with M12V, F20L, T30S, N57Y, S61P, T77N, G85S, F99Y, F102Y, S107Y
VL: B2 VL with H31D, F51L, S54Y, S61F, I90V
In the case of B15, the “IC50 of vincristine” value [1] is reported as 16.7 pM.

B16: KB1.269A (antibody, human IgG1, V domains shown)
VH: B14 VH with M3Q, G10A, L11S, S31N, T33A, G56S, N57Y, P61L, N78T, R101V
VL: B2 VL with N33T, F51L, S54Y, I90V, Y91F, Y101R
With B16 the “IC50 of vincristine” value [1] was 32.3 pM.

B17: B1.188 (antibody, human IgG1, V domains shown)
VH: B6 VH with Q3M, R43K, K76R, I87R, L93M, T97A, H111Q
VL: B2 VL with V2I, V3Q, T7S, N33T, F51L, S54Y, I90V, Y101F, G105S
B17 was tested, and the “IC50 of vincristine” value [1] was 92.9 pM.

B18: B1.27 (antibody, human IgG1, V domains shown)
VH: EVKLVESGGGLVKPGGSLKLSCAASGFTFSSYTMSWVRQTPEKRLEWVATVSSGGGNTYYPDSVKGRFTISRDNAKNNLYLQMSSPRSEDTALYYCARYGNYGWFTYWGQGTLVTVSS
VL: B13 VL with L3V, V9L, S12P, S28N, E39D, I56V, Y92F, A96G, F99I
In the case of B18, the “IC50 of vincristine” value [1] is reported as 2830 pM.

B19: B1.217 (antibody, human IgG1, V domains shown)
VH: EVQLVESGGALVKPGGSLKLSCAASGFTFSNYAMSWVRQTPEKRLEWVATISSGGSYTYYPDSVKGRFTISRDNAKNTLYLQMSSLRSEDTALYYCTKYSNYGRFAYWGQGTLVTVST
VL: B13 VL with V9L, S12P, I56V, A96G, F99I, R101Y
For B19, the “IC50 of vincristine” value [1] was 38.6 pM.

B20: B1.39 (antibody, human IgG1, V domains shown)
VH: B18 VH with K3M, P86L, S118A
VL: B2 VL with V3L, V30L, F51L, S54Y, G69A, Y101R
B20 was tested, and the “IC50 of vincristine” value [1] was 90.9 pM.

B21: B1.264 (antibody, human IgG1, V domains shown)
VH: B19 VH with Q3K, Y57N, K65M, T97A, K98R, R104W, T118S
VL: B2 VL with F51L, S54Y, I90V, H98L, Y101R
For B21, the “IC50 of vincristine” value [1] was 19.2 pM.

B22: B1.85 (antibody, human IgG1, V domains shown)
VH: B6 VH with A33G, M34V, R43K, G54S, S63I, K65R, I87R, L93F, T97A, H111Q
VL: B2 VL with V2I, V3Q, T7S, N33T, F51L, S54Y, S81N, I90V
For B22, the “IC50 of vincristine” value [1] was 34.5 pM.

B23: B1.89 (antibody, human IgG1, V domains shown)
VH: KVQLVESGGALVKPGGSLKLSCAASGFTFSNYAMSWVRQTPEKRLEWVATISSSGSYTYFPDSVKGRFTISRDNAKNTLYLQMSSLRSEDTALYYCARYGYDEAWFASWGQGTLVTVSA
VL: B13 VL with V9L, S12P, S28T, T33N, I56V, N58K, A96G
For B23, the “IC50 of vincristine” value [1] was 62.2 pM.

B24: B1.263 (antibody, human IgG1, V domains shown)
VH: EVKLVESGGGLVKPGGSLKLSCAASGFTFSNYGMSWVRQTPEKRLEWVAAISSNGAYTYFPDTVKGRFTISRDNAKNTLYLQMNSLRSEDTALYYCTRRGWDTWFAYWGQGTLVTVSS
VL: B2 VL with S28N, N33T, F51L, S54Y, I90V, Y101W
For B24, the “IC50 of vincristine” value [1] was 6.2 pM.

B25: B1.276 (antibody, human IgG1, V domains shown)
VH: EVKLVESGGALVKPGGSLKLSCAASGFTFRNYAMSWVRQTPEKRLEWVATISSDGSYTYHPDSVKGRFTISRDNARNTLYLQMSSLRSEDTAMYSCTRQGNWGRTWFTYWGQGTLVTVSS
VL: QIVLTQSPAIMSASPGEKVTMTCRASSSVSSSYLHWYQQKSGASPKLWIYSTSSLASGVPARFSGSGSGTSYSLTISSVEAEDAATYYCQQYSGYPLTFGAGTKLELK
B25 was tested, and the “IC50 of vincristine” value [1] was 29 pM.

B26: B1.225 (antibody, human IgG1, V domains shown)
VH: EVQLVESGGALVKPGGSLKLSCAASGFTFSNYGMSWVRQTPEKRLEWVATISSGGSYTYYPDTVKGRFTISRDNAKNTLHLQMSSLRSEDTALYYCARRGTNDAWFGYWGQGTLVTVSA
VL: DVVMTQTPLSLPVSLGDQASISCRFSQSIVHSNGNTYLEWYLQKPGQSPKLLIYKVSNRFFGVPDRFSGSGSGTDFTLKISRVEAEDLGVYFCFQGSHVPQYTFGGGTKLEIK
In the case of B26, the “IC50 of vincristine” value [1] is reported as 3.5 pM.
